# Earlier results as cited in US20160346224A1, “COMPOSITIONS AND METHODS FOR REDUCING VISUAL LOSS” (Edge Therapeutics, Inc., priority 2015, published 2016).
# No end group written: not given here.
# What was measured:
# [1] = molecular target: T1, R-type calcium current in the neurohypophysial nerve endings (Rattus norvegicus, UniProt Q07652); settings: at 40 nM concentration
# T1 construct: R-type calcium current in the neurohypophysial nerve endings at 40 nM concentration; host or cells: neurohypophysial nerve endings (native tissue preparation)
# T1 sequence (Q07652 whole entry): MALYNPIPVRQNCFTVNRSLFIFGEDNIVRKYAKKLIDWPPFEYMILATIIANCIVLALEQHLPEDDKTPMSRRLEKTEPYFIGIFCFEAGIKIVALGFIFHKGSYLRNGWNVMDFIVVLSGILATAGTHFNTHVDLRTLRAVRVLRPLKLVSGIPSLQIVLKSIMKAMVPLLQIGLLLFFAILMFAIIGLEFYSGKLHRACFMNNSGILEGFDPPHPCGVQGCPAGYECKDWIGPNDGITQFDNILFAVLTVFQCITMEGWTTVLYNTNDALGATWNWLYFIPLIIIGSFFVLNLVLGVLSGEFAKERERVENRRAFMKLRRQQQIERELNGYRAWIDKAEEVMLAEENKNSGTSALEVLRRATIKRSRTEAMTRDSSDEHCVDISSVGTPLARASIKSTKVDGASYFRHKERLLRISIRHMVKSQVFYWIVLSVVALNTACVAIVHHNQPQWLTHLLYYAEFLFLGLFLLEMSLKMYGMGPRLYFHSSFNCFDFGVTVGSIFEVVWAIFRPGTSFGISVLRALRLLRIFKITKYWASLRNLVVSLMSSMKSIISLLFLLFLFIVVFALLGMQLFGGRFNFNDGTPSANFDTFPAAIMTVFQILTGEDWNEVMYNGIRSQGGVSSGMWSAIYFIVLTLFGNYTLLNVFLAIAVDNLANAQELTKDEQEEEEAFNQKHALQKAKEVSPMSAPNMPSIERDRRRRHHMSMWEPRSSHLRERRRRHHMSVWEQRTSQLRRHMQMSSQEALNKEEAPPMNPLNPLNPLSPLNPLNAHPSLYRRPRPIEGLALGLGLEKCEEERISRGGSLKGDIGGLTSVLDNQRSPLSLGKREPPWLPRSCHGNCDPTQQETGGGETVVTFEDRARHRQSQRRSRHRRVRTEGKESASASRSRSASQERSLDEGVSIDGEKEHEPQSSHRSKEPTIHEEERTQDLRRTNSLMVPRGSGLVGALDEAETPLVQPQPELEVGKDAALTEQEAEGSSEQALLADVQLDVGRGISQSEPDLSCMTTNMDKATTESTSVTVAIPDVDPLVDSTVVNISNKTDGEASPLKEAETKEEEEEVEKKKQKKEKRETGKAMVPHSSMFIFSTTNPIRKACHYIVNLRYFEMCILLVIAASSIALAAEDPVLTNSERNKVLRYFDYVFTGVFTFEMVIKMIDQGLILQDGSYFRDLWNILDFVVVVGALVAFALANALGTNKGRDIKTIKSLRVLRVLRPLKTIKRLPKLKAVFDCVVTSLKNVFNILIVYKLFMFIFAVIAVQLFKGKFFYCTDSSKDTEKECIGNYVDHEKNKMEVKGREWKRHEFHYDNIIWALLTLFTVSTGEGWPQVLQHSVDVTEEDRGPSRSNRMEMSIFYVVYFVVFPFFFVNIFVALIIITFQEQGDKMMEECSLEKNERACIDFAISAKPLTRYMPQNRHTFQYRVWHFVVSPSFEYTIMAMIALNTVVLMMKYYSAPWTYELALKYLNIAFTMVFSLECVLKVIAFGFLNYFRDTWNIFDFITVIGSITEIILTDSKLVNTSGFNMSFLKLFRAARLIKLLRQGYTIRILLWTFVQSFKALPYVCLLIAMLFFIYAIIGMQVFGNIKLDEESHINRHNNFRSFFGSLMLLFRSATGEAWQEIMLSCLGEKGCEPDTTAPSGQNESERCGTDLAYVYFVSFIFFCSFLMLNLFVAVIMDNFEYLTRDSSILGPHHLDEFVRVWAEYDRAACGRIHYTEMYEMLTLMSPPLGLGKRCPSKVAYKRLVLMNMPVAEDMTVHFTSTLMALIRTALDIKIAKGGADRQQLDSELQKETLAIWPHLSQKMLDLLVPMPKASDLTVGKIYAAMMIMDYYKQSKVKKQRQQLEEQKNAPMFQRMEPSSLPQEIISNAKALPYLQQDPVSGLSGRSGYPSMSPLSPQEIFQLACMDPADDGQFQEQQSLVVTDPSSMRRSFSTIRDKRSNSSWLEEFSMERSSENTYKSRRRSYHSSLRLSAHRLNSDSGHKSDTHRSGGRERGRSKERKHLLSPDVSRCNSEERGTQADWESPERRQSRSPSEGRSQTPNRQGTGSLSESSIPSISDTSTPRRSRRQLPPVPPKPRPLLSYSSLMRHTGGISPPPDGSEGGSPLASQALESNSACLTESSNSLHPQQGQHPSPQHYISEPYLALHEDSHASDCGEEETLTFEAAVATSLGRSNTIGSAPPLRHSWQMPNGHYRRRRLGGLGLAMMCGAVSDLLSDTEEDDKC
# [2] = system: K+ and Na+ currents, and L, P/Q and T-type calcium currents
# N-type calcium current = N-type calcium current (Homo sapiens, UniProt Q00975); settings: at 300 nM to 500 nM
# Chain of N-type calcium current (Q00975 whole entry): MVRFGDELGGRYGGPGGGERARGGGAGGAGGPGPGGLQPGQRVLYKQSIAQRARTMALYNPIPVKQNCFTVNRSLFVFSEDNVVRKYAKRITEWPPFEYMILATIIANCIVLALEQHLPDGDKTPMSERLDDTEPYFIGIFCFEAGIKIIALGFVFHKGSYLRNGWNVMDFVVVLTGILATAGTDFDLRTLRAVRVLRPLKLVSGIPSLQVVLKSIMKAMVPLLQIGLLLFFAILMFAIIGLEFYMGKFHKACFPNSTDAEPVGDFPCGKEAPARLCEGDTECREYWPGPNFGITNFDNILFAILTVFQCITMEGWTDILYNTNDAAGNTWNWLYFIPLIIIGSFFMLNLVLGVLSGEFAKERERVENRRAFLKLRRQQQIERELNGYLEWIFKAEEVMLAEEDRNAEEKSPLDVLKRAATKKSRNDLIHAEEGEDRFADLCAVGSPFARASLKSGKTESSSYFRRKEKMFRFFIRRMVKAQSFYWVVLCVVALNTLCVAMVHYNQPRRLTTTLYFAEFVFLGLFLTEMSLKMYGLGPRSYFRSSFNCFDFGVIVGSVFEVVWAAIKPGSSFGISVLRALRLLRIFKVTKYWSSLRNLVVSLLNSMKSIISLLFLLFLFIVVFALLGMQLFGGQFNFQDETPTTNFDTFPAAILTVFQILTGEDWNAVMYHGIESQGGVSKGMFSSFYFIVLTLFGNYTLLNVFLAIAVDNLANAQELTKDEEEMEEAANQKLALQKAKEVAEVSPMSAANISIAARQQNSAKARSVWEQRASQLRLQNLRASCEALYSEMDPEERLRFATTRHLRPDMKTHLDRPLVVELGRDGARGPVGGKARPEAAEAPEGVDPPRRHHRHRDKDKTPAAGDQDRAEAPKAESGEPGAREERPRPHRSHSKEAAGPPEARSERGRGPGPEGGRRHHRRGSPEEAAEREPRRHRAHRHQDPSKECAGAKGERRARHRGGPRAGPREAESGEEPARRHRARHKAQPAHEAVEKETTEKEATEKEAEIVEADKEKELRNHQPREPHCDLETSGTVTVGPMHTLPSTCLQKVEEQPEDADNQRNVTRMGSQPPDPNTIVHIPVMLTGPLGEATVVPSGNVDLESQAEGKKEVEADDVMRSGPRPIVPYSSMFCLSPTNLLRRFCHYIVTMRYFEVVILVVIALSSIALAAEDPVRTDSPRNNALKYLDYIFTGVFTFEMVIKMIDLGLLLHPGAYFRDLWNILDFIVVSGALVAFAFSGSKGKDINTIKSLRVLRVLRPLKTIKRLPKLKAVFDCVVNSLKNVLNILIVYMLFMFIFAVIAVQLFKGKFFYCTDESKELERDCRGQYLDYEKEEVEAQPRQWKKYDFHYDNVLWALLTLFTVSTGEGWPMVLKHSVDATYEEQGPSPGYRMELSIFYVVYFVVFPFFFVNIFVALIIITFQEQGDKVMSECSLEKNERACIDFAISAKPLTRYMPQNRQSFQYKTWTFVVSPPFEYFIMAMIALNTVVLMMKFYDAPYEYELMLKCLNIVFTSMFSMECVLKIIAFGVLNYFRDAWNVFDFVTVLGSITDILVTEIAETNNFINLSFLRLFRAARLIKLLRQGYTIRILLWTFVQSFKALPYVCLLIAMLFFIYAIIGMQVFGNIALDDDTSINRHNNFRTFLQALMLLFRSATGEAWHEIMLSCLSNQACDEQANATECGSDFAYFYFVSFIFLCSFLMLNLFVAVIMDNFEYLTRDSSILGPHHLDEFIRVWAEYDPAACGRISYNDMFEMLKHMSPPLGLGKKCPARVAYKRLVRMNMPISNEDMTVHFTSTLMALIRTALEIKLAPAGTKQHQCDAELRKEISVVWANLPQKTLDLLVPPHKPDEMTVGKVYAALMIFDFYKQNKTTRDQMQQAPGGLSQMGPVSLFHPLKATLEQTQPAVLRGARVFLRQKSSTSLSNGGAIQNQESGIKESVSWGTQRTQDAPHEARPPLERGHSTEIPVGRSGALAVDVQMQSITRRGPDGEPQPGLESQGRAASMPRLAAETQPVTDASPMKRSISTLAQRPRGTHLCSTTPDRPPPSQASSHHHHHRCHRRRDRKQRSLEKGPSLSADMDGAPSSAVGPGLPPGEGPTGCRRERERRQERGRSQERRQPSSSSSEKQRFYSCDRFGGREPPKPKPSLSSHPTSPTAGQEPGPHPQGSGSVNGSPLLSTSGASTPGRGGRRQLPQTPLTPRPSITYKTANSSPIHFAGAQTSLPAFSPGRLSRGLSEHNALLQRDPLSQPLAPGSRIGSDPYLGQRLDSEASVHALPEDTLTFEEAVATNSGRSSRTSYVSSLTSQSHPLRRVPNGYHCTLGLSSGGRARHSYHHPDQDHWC
# [3] = system: R-type current in preparations of the neuronal cell body, retinal ganglion cells and hippocampal pyramidal cells
substance,measurement,setting,value
"SNX-482: toxin from the tarantula Hysterocrates gigas, a 41 amino acid residue peptide with 3 disulfide linkages; putative R-type selective antagonist (GVDKAGCRYMFGGCSVNDDCCPRLGCHSLFSYCAWDLTFSD; disulfide (positions not given here); also: 3 disulfide linkages, pairings not given here; UniProt P56854 1-41, looked up)",block of R-type calcium current,[1],blocks
same,"effect on K+ and Na+ currents, and L, P/Q and T-type calcium currents",[2],no effect
same,block of N-type calcium current,N-type calcium current,30-50%
same,effect on R-type current,[3],no significant effect
